Key:
Format in all cases: cell-based, human
NFAT-Luciferase reporter [1] = experiment: NFAT-Luciferase reporter assay in transiently transfected Jurkat E6.1 cells (Example 3)
From the text: One outcome of T cell activation is the expression of Nuclear Factor of Activated T cells (NFAT) transcription factors. Accordingly, a construct containing a reporter gene, such as firefly luciferase (Luc), under the control of an NFAT response element can be used to assess T cell activity. Such a construct can either be transiently transfected into cells (e.g., Jurkat cells, which are an immortalized line of human T cells) or stably integrated into a cell line (e.g., a derivative Jurkat cell line). These reporter genes can be used to measure activation, or inhibition, of T cell activation pathways.
To examine whether an endoxifen-responsive dominant negative Zap-70 polypeptide could inhibit T cell activity resulting in NFAT-luciferase expression, Jurkat E6.1 cells (purchased from ATCC (Manassas, Va.)) were transiently transfected with an NFAT-Luciferase reporter construct and a test construct of (1) a control vector (“vector”), (2) a vector encoding a dominant negative Zap70 moiety, as described in Example 2 (“Zap70dnm”), or (3) a vector encoding an endoxifen-responsive dominant negative Zap70 polypeptide, including an ER(T2) domain operatively linked to a dominant negative Zap70 moiety, as described in Example 1 (“Zap70dnm-ER(T2)”). The transient transfections were performed using LTX and PLUS transfection reagent (ThermoFisher Scientific) according to manufacturer's protocols.
Transfected cells were treated in the absence or presence of 1:30 Immunocult™ CD3/CD28/CD2 tetrameric antibody mixture (StemCell Technologies, Canada) (“α-TCR”), which stimulates T cell activity. […]
(§1) After 19 hours, luciferase activity was assayed with Bright-Glo substrate according to manufacturer's protocols (Promega). Luminescence was detected on the Varioskan Lux (ThermoFisher Scientific) plate reader at a 1 second interval. The luminescence was measured and reported in relative light units (RLU). […]

NFAT-Luciferase reporter [2] = experiment: NFAT-Luciferase reporter assay, endoxifen dose response (Example 4); conditions: Jurkat E6.1 cells, anti-TCR antibody clone 305, endoxifen 0.05-1000 nM, 6 hours
From the text: To examine whether the concentration of endoxifen affected the level of inhibition of T cell activity by an endoxifen-responsive dominant negative Zap-70 polypeptide, Jurkat E6.1 cells (purchased from ATCC (Manassas, Va.)) were transiently transfected with an NFAT-Luciferase reporter construct and a test construct of (1) a vector encoding a dominant negative Zap70 moiety, as described in Example 2 (“Zap70dnm”), or (2) a vector encoding an endoxifen-responsive dominant negative Zap70 polypeptide, including an ER(T2) domain operatively linked to a dominant negative Zap70 moiety, as described in Example 1 (“Zap70dnm-ER(T2)”). The transient transfections were performed using LTX and PLUS transfection reagent (ThermoFisher Scientific) according to manufacturer's protocols.
Transfected cells were treated with an anti-TCR antibody, clone 305, which stimulated T cell activity. […]
as §1, with “6” for “19”

NFAT-Luciferase reporter [3] = experiment: NFAT-Luciferase reporter assay with ZAP70dn(1-278) constructs (Example 10); conditions: Jurkat E6.1 cells, αTCR+αCD28, with or without endoxifen, compared to empty vector controls
From the text: (§2) To provide a means for assessing immune pathway activity, a construct containing a reporter gene, such as firefly luciferase (Luc), under the control of an NFAT response element can be used, as described, e.g., in Example 3. In the present Example, Jurkat E6.1 cells were transiently transfected with an NFAT-Luciferase reporter construct as well as one of (a) empty vector; (b) an expression construct encoding ZAP70dn(1-278); (c) an expression construct encoding ZAP70dn(1-278)-ER(T2); and (d) an expression construct encoding ZAP70dn(1-278)-ER(T12). Transient transfections were performed using LTX and PLUS transfection reagent (ThermoFisher Scientific) according to manufacturer's protocols.
A first set of transfected cells was treated in the absence or presence of 1:30 dilution of Immunocult CD3/CD28/CD2 tetrameric antibody mixture (StemCell Technologies, Canada), which stimulated T-cell activity. […] Luciferase activity (luminescence) was measured and reported as a percentage induction of NFAT-Luciferase.
A further set of transfected cells was treated in the absence or presence of 0.25 μg/ml C305 (αTCR, Sigma-Aldrich) plus 2 μg/ml αCD28.2 (Biolegend), which stimulated T-cell activity. […] Luciferase activity (luminescence) was measured and reported in relative light units (RLU).

NFAT-Luciferase reporter [4] = experiment: NFAT-Luciferase reporter assay with LCK(1-266) constructs (Example 11); conditions: Jurkat E6.1 cells, α-CD3 and α-CD28, with or without endoxifen, compared to empty vector controls
From the text: as §2, with “assessing T cell” for “assessing immune pathway”, “reporter construct,” for “reporter construct”, “empty vector control;” for “empty vector;”, “encoding LCK(1-266); and” for “encoding ZAP70dn(1-278);”, “encoding LCK(1-266)-ER(T12).” for “encoding ZAP70dn(1-278)-ER(T2); and (d) an expression construct encoding ZAP70dn(1-278)-ER(T12).”
Transfected cells were treated in the absence or presence of 1:80 dilution of Immunocult CD3/CD28 tetrameric antibody mixture (StemCell Technologies, Canada), which stimulated T-cell activity. Stimulated cells were then further treated with RPMI 1640 media plus 4.8% FBS stripped with charcoal dextran (ThermoFisher Scientific), either without Z-endoxifen or with 100 nM Z-endoxifen (Axon-Medchem). Luciferase activity (luminescence) was measured and reported as percent induction of NFAT-Luciferase.

B1: Zap70dnm: polypeptide including a nuclear export signal and a dominant negative Zap-70 moiety, SEQ ID NO: 10 (protein)
chain: MNELALKLAGLDINKTMPDPAAHLPFFYGSISRAEAEEHLKLAGMADGLFLLRQCLRSLGGYVLSLVHDVRFHHFPIERQLNGTYAIAGGKAHCGPAELCEFYSRDPDGLPCNLRKPCNRPSGLEPQPGVFDCLRDAMVRDYVRQTWKLEGEALEQAIISQAPQVEKLIATTAHERMPWYHSSLTREEAERKLYSGAQTDGKFLLRPRKEQGTYALSLIYGKTVYHYLISQDKAGKYCIPEGTKFDTLWQLVEYLKLKADGLIYCLKEACPNSSASNASGAAAPTLPAHPSTLT
luciferase expression from the NFAT-luciferase construct (NFAT-Luciferase reporter [1]; vehicle (not treated with α-TCR or endoxifen)): no luciferase expression was detected
luciferase expression from the NFAT-luciferase construct (NFAT-Luciferase reporter [1]; α-TCR plus 100 nM endoxifen, 19 hours): low and nearly equivalent to the luciferase expression observed from sample 5
luciferase expression from the NFAT-luciferase construct (NFAT-Luciferase reporter [1]; α-TCR, no endoxifen, 19 hours): low
luciferase expression from the NFAT-luciferase construct (NFAT-Luciferase reporter [2]): low

B2: ZAP70dn(1-278): dominant negative signaling moiety, ZAP70 amino acids 1-278, lacks a functional kinase domain, SEQ ID NO: 2 (protein)
chain: MPDPAAHLPFFYGSISRAEAEEHLKLAGMADGLFLLRQCLRSLGGYVLSLVHDVRFHHFPIERQLNGTYAIAGGKAHCGPAELCEFYSRDPDGLPCNLRKPCNRPSGLEPQPGVFDCLRDAMVRDYVRQTWKLEGEALEQAIISQAPQVEKLIATTAHERMPWYHSSLTREEAERKLYSGAQTDGKFLLRPRKEQGTYALSLIYGKTVYHYLISQDKAGKYCIPEGTKFDTLWQLVEYLKLKADGLIYCLKEACPNSSASNASGAAAPTLPAHPSTLT
luciferase reporter expression (RLU) (NFAT-Luciferase reporter [3]): substantially reduced expression of luciferase reporter

B3: LCK(1-266): dominant negative LCK signaling moiety, SEQ ID NO: 17 (protein)
chain: MGCGCSSHPEDDWMENIDVCENCHYPIVPLDGKGTLLIRNGSEVRDPLVTYEGSNPPASPLQDNLVIALHSYEPSHDGDLGFEKGEQLRILEQSGEWWKAQSLTTGQEGFIPFNFVAKANSLEPEPWFFKNLSRKDAERQLLAPGNTHGSFLIRESESTAGSFSLSVRDFDQNQGEVVKHYKIRNLDNGGFYISPRITFPGLHELVRHYTNASDGLCTRLSRPCQTQKPQKPWWEDEWEVPRETLKLVERLGAGQFGEVWMGYYNG
luciferase reporter expression (percent induction of NFAT-Luciferase) (NFAT-Luciferase reporter [4]): substantially reduced expression of luciferase reporter

From patent US20230159619A1, “COMPOSITIONS AND METHODS FOR REGULATING IMMUNE SYSTEM ACTIVITY” (Olema Pharmaceuticals, Inc., priority 2017, published 2023)
